Reference: US20210230266A1 (SINGAPORE HEALTH SERVICES PTE, published 2021)
Substitutions are numbered along the chain they refer to. Blank lines part the entries; values can stand above or below the binder they belong to.

Columns and labels:
Human IL-11 [1] = biological target: T1, Human IL-11 (human, UniProt P20809 22-199); assay: ELISA on coated recombinant human IL-11 (100 ng/well), scFv-Fc
T1 construct: Recombinant human IL-11 (GenScript Cat. No. Z03108-1) or IL-11 secreted by human cells; the mature form is said to have 178 residues; also called recombinant human IL-11; endogenously produced IL-11
T1 sequence: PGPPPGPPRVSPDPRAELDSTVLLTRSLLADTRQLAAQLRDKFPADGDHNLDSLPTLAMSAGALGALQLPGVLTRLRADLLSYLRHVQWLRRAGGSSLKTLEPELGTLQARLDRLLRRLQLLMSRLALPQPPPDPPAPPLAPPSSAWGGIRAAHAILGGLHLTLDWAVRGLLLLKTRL
Protocol: The light chain shuffled anti-IL-11 antibodies were analysed to determine the EC50 for binding to human IL-11 by ELISA according to standard methods. Briefly, wells of microtiter plates were coated with recombinant human IL-11 (100 ng/well), scFv-Fc comprising the VH and VL domains of the clones were added in a dilution series and antibody binding was detected using a polyclonal antibody detection system.

Human IL-11 [2] = biological target: T1, Human IL-11; assay: SPR (BIAcore T200) single cycle kinetics, human IL-11 on CM5 chip, 1:1 model
From the text: HEK293 EBNDA cells were transfected with vectors encoding scFv corresponding to YU100-H01, 01A, 01G, 01I, 01L, 01Q, 01S, 01T, 01V, YU100-G08, 02A, 02G, 02I, 02L, 02Q, 02S, 02T or 02V.

Human IL-11 [3] = biological target: T1, Human IL-11; assay: cell-based or functional assay
Human IL-11 [4] = biological target: T1, Human IL-11; assay: ELISA
Protocol: (§1) The soluble scFv were produced by recombinant expression in E. coli, and analysed for their ability to bind to human IL-11 and murine IL-11 by ELISA. Briefly, the respective antigen was coated to wells of an ELISA plate, the cell culture supernatant containing the respective scFv was added at a 1:2 dilution, and binding was detected.

Mouse IL-11 = biological target: T2, Mouse IL-11 (mouse, UniProt P47873 22-199, limits assumed); assay: ELISA
T2 construct: also called murine IL-11; recombinant murine IL-11
T2 sequence (looked up): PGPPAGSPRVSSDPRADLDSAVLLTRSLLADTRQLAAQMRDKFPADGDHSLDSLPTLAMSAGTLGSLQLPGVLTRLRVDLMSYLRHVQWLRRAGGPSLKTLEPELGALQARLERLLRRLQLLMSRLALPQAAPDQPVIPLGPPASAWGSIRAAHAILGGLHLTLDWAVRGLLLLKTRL
Protocol: as §1

Human IL-11 [5] = biological target: T1, Human IL-11; assay: SPR, Single Cycle Kinetics, BIAcore T200; human IL-11 immobilised on CM5 chip, antibody in IgG1 format as analyte, 1:1 model

B1: YU100-G08 (antibody, human IgG1, V domains shown)
VH: QVQLVQSGGGVVQPGRSLRLSCAASGFTFSSYGMHWVRQAPGKGLEWVAVISYDGSNKYYADSVKGRFTISRDNSKNTLYLQMNSLRAEDTAVYYCAKIGATDPLDYWGQGTLVTVSS
VL: QSALTQPRSVSGSPGQSVTLSCTGTSSDVGGYNYVSWYQHYPGKAPKLMIFDVNERSSGVPDRFSGSKSGNTASLTISGLQAEDEADYYCCSYAGRYTWMFGGGTKVTVLG
notes: Light chain shuffled human antibody; Only the variable domains are tied to the clone
EC50 (Human IL-11 [1]): 0.028 µg/mL
Kd (Human IL-11 [2]): 3.51 nM
koff (Human IL-11 [2]): 0.0013 s⁻¹
kon (Human IL-11 [2]): 369000 M⁻¹ s⁻¹
MMP2 production, Experiment 1 (human atrial fibroblasts + TGFB1) (Human IL-11 [3]): 42.3 ng/mL
MMP2 production, Experiment 2 (human atrial fibroblasts + TGFB1) (Human IL-11 [3]): 38 ng/mL
hIL11 - average signal (Human IL-11 [4]): 0.153
mIL11 - average signal (Mouse IL-11): 0.27

B2: YU100-H01 (antibody, human IgG1, V domains shown)
VH: QVQLVQSGGGVVQPGRSLRLSCAASGFTFSSYAMHWVRQAPGKGLEWVAVISYDGSNKYYADSVKGRFTISRDNSKNTLYLQMNSLRAEDTAVYYCARIMGYDYGDYDVVDYWGQGTLVTVSS
VL: B1 VL with L20I, G31A, H40Q, Y41H, F51Y, N54S, S57P, R96S, M100V, V107L
notes: as for B1
EC50 (Human IL-11 [1]): 0.053 µg/mL
Kd (Human IL-11 [5]): 42.3 nM
koff (Human IL-11 [5]): 0.000658 s⁻¹
kon (Human IL-11 [5]): 14800 M⁻¹ s⁻¹
MMP2 production, Experiment 1 (human atrial fibroblasts + TGFB1) (Human IL-11 [3]): 48.3 ng/mL
MMP2 production, Experiment 2 (human atrial fibroblasts + TGFB1) (Human IL-11 [3]): 42.2 ng/mL
hIL11 - average signal (Human IL-11 [4]): 0.43
mIL11 - average signal (Mouse IL-11): 0.283

B5: 01I (antibody, IgG1, V domains shown)
VH: B2 VH
VL: QSALTQPRSVSGSPGQSVTISCTGTSSDVGAYNYVSWYQQHPGKAPKLMIYDVSERPSGVPDRFSGSKSGNTASLTISGLQAEDEADYYCISYAGSYTWVFGGGTKLTVLG
notes: C91I variant of the YU100-H01 VL
Kd (Human IL-11 [5]): 29.2 nM
koff (Human IL-11 [5]): 0.00269 s⁻¹
kon (Human IL-11 [5]): 92100 M⁻¹ s⁻¹

B6: 01Q (antibody, IgG1, V domains shown)
VH: B2 VH
VL: B5 VL with I91Q
notes: C91Q variant of the YU100-H01 VL
Kd (Human IL-11 [5]): 104 nM
koff (Human IL-11 [5]): 0.000966 s⁻¹
kon (Human IL-11 [5]): 9290 M⁻¹ s⁻¹

B7: 01L (antibody, IgG1, V domains shown)
VH: B2 VH
VL: B5 VL with I91L
notes: C91L variant of the YU100-H01 VL
Kd (Human IL-11 [5]): 33.5 nM
koff (Human IL-11 [5]): 0.000526 s⁻¹
kon (Human IL-11 [5]): 15700 M⁻¹ s⁻¹

B9: 01A (antibody, IgG1, V domains shown)
VH: B2 VH
VL: B5 VL with I91A
notes: C91A variant of the YU100-H01 VL
Kd (Human IL-11 [5]): 62.6 nM
koff (Human IL-11 [5]): 0.00081 s⁻¹
kon (Human IL-11 [5]): 12900 M⁻¹ s⁻¹

B10: 01V (antibody, IgG1, V domains shown)
VH: B2 VH
VL: B5 VL with I91V
notes: C91V variant of the YU100-H01 VL
Kd (Human IL-11 [5]): 84.7 nM
koff (Human IL-11 [5]): 0.000778 s⁻¹
kon (Human IL-11 [5]): 9190 M⁻¹ s⁻¹

B12: 01S (antibody, IgG1, V domains shown)
VH: B2 VH
VL: B5 VL with I91S
notes: C91S variant of the YU100-H01 VL
Kd (Human IL-11 [5]): 107 nM
koff (Human IL-11 [5]): 0.000905 s⁻¹
kon (Human IL-11 [5]): 8470 M⁻¹ s⁻¹

B14: 01T (antibody, IgG1, V domains shown)
VH: B2 VH
VL: B5 VL with I91T
notes: C91T variant of the YU100-H01 VL
Kd (Human IL-11 [5]): 17.1 nM
koff (Human IL-11 [5]): 0.0127 s⁻¹
kon (Human IL-11 [5]): 742000 M⁻¹ s⁻¹

B17: 01G (antibody, IgG1, V domains shown)
VH: B2 VH
VL: B5 VL with I91G
notes: C91G variant of the YU100-H01 VL
Kd (Human IL-11 [5]): 560 nM
koff (Human IL-11 [5]): 0.000986 s⁻¹
kon (Human IL-11 [5]): 1760 M⁻¹ s⁻¹

Results, then the binder that gave them:

Kd (Human IL-11 [2]): 5.84 nM
koff (Human IL-11 [2]): 0.00249 s⁻¹
kon (Human IL-11 [2]): 426000 M⁻¹ s⁻¹
B3: 02Q (antibody, IgG1, V domains shown)
VH: B1 VH
VL: B1 VL with C91Q
notes: C91Q variant of the YU100-G08 VL

Kd (Human IL-11 [2]): 10.4 nM
koff (Human IL-11 [2]): 0.00215 s⁻¹
kon (Human IL-11 [2]): 207000 M⁻¹ s⁻¹
B4: 02V (antibody, IgG1, V domains shown)
VH: B1 VH
VL: B1 VL with C91V
notes: C91V variant of the YU100-G08 VL

Kd (Human IL-11 [2]): 4.99 nM
koff (Human IL-11 [2]): 0.00639 s⁻¹
kon (Human IL-11 [2]): 1.28e+06 M⁻¹ s⁻¹
B8: 02S (antibody, IgG1, V domains shown)
VH: B1 VH
VL: B1 VL with C91S
notes: C91S variant of the YU100-G08 VL

Kd (Human IL-11 [2]): 2.89 nM
koff (Human IL-11 [2]): 0.00238 s⁻¹
kon (Human IL-11 [2]): 825000 M⁻¹ s⁻¹
B11: 02I (antibody, IgG1, V domains shown)
VH: B1 VH
VL: B1 VL with C91I
notes: C91I variant of the YU100-G08 VL

Kd (Human IL-11 [2]): 35 nM
koff (Human IL-11 [2]): 0.00207 s⁻¹
kon (Human IL-11 [2]): 59200 M⁻¹ s⁻¹
B13: 02T (antibody, IgG1, V domains shown)
VH: B1 VH
VL: B1 VL with C91T
notes: C91T variant of the YU100-G08 VL

Kd (Human IL-11 [2]): 4.46 nM
koff (Human IL-11 [2]): 0.00312 s⁻¹
kon (Human IL-11 [2]): 699000 M⁻¹ s⁻¹
B15: YU100-G08_02A (antibody, V domains shown)
VH: B1 VH
VL: B1 VL with C91A
notes: C91A variant of the YU100-G08 VL

Kd (Human IL-11 [2]): 1980 nM
koff (Human IL-11 [2]): 0.0537 s⁻¹
kon (Human IL-11 [2]): 27200 M⁻¹ s⁻¹
B16: 02G (antibody, IgG1, V domains shown)
VH: B1 VH
VL: B1 VL with C91G
notes: C91G variant of the YU100-G08 VL

Kd (Human IL-11 [2]): 4.36 nM
koff (Human IL-11 [2]): 0.00202 s⁻¹
kon (Human IL-11 [2]): 463000 M⁻¹ s⁻¹
B18: 02L (antibody, IgG1, V domains shown)
VH: B1 VH
VL: B1 VL with C91L
notes: C91L variant of the YU100-G08 VL

EC50 (Human IL-11 [1]): 0.058 µg/mL
MMP2 production, Experiment 1 (human atrial fibroblasts + TGFB1) (Human IL-11 [3]): 53.5 ng/mL
MMP2 production, Experiment 2 (human atrial fibroblasts + TGFB1) (Human IL-11 [3]): 49.1 ng/mL
hIL11 - average signal (Human IL-11 [4]): 0.71
mIL11 - average signal (Mouse IL-11): 0.561
B19: YU112-E07 (antibody)
chain: QVQLVQSGGGVVQPGRSLRLSCAASGFTFGSYGMHWVRQAPGKGLEWVAVISYDGSNKYYADSVKGRFTISRDNSKNTLYLQMNSLRAEDTAVYYCAKGSYYFDYWGQGTLVTVSSGSASAPKLEEGEFSEARVEIVMTQSPDSLAVSLGERATINCKSSQSVNSAYLAWYQHKPGQPPRLLIYGASRRVTGVPDRFSGSGSGTDFTLTISSLQPEDFATYYCQQSYSDPRWTFGQGTKVEIK

EC50 (Human IL-11 [1]): 0.024 µg/mL
MMP2 production, Experiment 1 (human atrial fibroblasts + TGFB1) (Human IL-11 [3]): 54.1 ng/mL
MMP2 production, Experiment 2 (human atrial fibroblasts + TGFB1) (Human IL-11 [3]): 48.2 ng/mL
hIL11 - average signal (Human IL-11 [4]): 0.173
mIL11 - average signal (Mouse IL-11): 0.309
B20: YU100-E06 (antibody)
chain: QVQLVESGGGVVQPGRSLRLSCAASGFTFSSYGMHWVRQAPGKGLEWVAVISYDGSNKYYADSVKGRFTISRDNSKNTLYLQMNSLRAEDTAVYYCAKIGATDPLDYWGQGTLVTVSSGSASAPKLEEGEFSEARVQSALTQPASVSGFPEQSITISCTGTSSDVGGYDYVSWYQQHPGKAPKLMIYDVTNRPSGVSNRFSGSKSGNTASLTISGLQPEDEADYYCSSYTSNTTWVFGGGTKLTVLRQPKAAPSVTLFPPSS

EC50 (Human IL-11 [1]): 0.027 µg/mL
MMP2 production, Experiment 1 (human atrial fibroblasts + TGFB1) (Human IL-11 [3]): 56.3 ng/mL
MMP2 production, Experiment 2 (human atrial fibroblasts + TGFB1) (Human IL-11 [3]): 50.2 ng/mL
hIL11 - average signal (Human IL-11 [4]): 0.16
mIL11 - average signal (Mouse IL-11): 0.275
B21: YU100-E05 (antibody)
chain: EVQLVQSGGGVVQPGRSLRLSCAASGFTFSSYGMHWVRQAPGKGLEWVAVISYDGSNKYYADSVKGRFTISRDNSKNTLYLQMNSLRAEDTAVYYCAKIGATDPLDYWGQGTLVTVSSGSASAPKLEEGEFSEARVQAVLTQPRSVSGSPGQSVTISCTGTSSDVGGYNYVSWYQQHPGKAPKLMIYDVSKRPSGVPDRFSGSKSGNTASLTISGLQAEDEADYYCCSYAGSYSWVFGGGTKLTVLGQPKAAPSVTLFPPSS
